The target in test [1] is PSGL-1/mIgG2b fusion protein co-expressed with porcine α1,3 galactosyltransferase (α-Gal substituted) (human; mouse) (UniProt Q14242). The test is described as follows: sandwich ELISA, fusion protein made in CHO cells with α1,3GalT against the same made without α1,3GalT. (In an ELISA, binding on a coated surface is turned into a signal by an enzyme label.)
Test [2] shares this target. The test is described as follows: sandwich ELISA, fusion protein made in 293T cells with α1,3GalT against the same made without α1,3GalT.
Test [3] has the same target. The test is described as follows: sandwich ELISA, fusion protein made in COS cells with α1,3GalT against the same made in COS without α1,3GalT.
Test [4] deals with PSGL-1/mIgG2b fusion protein co-expressed in CHO-K1 cells with porcine α1,3GalT and core 2 β1,6 GlcNAc transferase (C2 GnTI) (human; mouse) (UniProt Q14242). The test is described as follows: sandwich ELISA, fusion protein from CHO-K1 with α1,3GalT and C2 GnTI against fusion protein from CHO-K1 without α1,3GalT.
Test [5] has the same target. The test is described as follows: sandwich ELISA, fusion protein from CHO-K1 with α1,3GalT and C2 GnTI against fusion protein from CHO-K1 with α1,3GalT alone.

Regarding “peroxidase-conjugated Griffonia (Bandeiraea) simplicifolia I isolectin B4 (cat.no. L-5391; Sigma)”, the fold increase in relative O.D. (GSA-reactivity/anti-mouse IgG reactivity) is 1.8 fold in test [1], 3.1 fold in test [2] and 5.3 fold in test [3]. Besides, the fold increase in α-Gal epitope density (relative O.D., GSA-reactivity/anti-mouse IgG reactivity) turned out to be 13 fold in test [4] and 7.4 fold in test [5].

The record behind these values is patent US20090280134A1.
